Source: PMC4188261

Target: Burkholderia mallei BmaI1 acyl-homoserine lactone synthase (Burkholderia mallei ATCC23344)
Assay: steady-state enzyme kinetics

For “octanoyl-acyl carrier protein (E. coli ACP) (from UniProt P0A6A8 1-78) (natural protein)”, the Kd was 125 nM.
